In the domain aggregation screens of Martell et al. (2025):

Test: soluble fraction after stress (log2 fold change); higher = more stays soluble; pooled small domains, quantitative proteomics
Conditions: stress: pH 4
Procedure, shortened: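 Aggregation propensity is read out as the fold change in how much of each domain remains soluble after acid stress. The custom small-domain libraries were pooled, held at pH 4 and analysed with high-throughput quantitative proteomics. On the log2 scale used, higher values mean more of the domain stayed soluble.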

First: HMAPVEEWAKASVMEDPTLVTETMARIFAQQGQIGKARKAYRHLALTYPAKSTYFAAQLKKLNQR
Second: HMAPVLTATVNTTSGKLNMRAAASATSAKLTSIPRGATVTVLEKGTTWSRISYGGYTGYVMTQYLKFD
The “soluble fraction (log2)” value of the first is higher: 0.355 for the first, -0.575 for the second.

Going from “HMAPVVELEDVTIVRGKATLLDRVNWVIDETDRWVIVGPNGAGKTTLLQVVSANLHPTSGKAMILDEVL” to “HMAQILEPSVALKKLLELKQAGFEDETLVGWIRKVEFTRPLTPDDLLEWKGAGISQAVIRAAM”, the “soluble fraction (log2)” value rises from -0.366 to 0.00449.

First: HMAQISDEGLLRGLIVEMFEANPAVVEELLGGRDRKKGFVIGQIMKKTKGMANPALLDQLFYEELEKL
Second: HMAQTEIPYSEFLREVGNGQIKSVIIEGSEITGFYKTSGTSFNVVAPDDPKLVERLMDQGVEVRAQPT
The “soluble fraction (log2)” value of the first is lower: -1.31 for the first, 0.193 for the second.

“HMAQVVMPNVVGKTEKDATATLEGKNLKVNVEYNLDATSDDGIVKEQSIKSGENIDEGTEITLKVNKV” and “HMAQWGFNGSEAGDLSFQQGDVIEVVEKVKDDWWRGRVLGSTEIGLFPS” are within 0.2 log units of each other in “soluble fraction (log2)” value: -1.69 for the first, -1.64 for the second.

Going from “HMARDDVIRLVQLSLDHLPAKYADALEWKYVEGLSTKEIAARLELGSEAAESLLARARRAFKNDFQEIFES” to “HMAREFPGTIIKRGSRGPDVRWIQQHIGVKLVDGVFGRGTERAVKQFQSRRRLKADGIVGRQTWAAIHN”, the “soluble fraction (log2)” value rises from -0.47 to no less than 0.43.

“HMARGATELPYSQLLDRVEAGEITTATTQGNTLLSTARDGKRYITYLPLDTMDEVVPRLDAANVEVKTER” and “HMARGLRPVPSVFGLDVRQATRTLYAAGFQVSIARGSDVRTRPAAGTLLRVGSTVQLEMPRMESA” are within 0.2 log units of each other in “soluble fraction (log2)” value: -0.123 for the first, -0.000244 for the second.

Compared with “HMARGTRTRAKLLAAAEVVFARYGYTEASIERITEEAGVGQGTFYLYFASKLEIFEELVDDLNR”, “HMARLEELSNGSIVEGLLSGEAVTVVSTKWYGSSSMEVFYKTNRGSTGSQILYREDEPSLTVLEKS” is higher in “soluble fraction (log2)” value: -1.07 for the first, -0.425 for the second.

“HMARPLHVDALIHLGTEIGSRVGGAHAGPHLLVAGHSPMSELVYARLLGIPTLGWMRGQLTFVNLSK” and “HMARSKSRQSSVLESVPGLGPSRRRNLLRHFGGLQGVVKAGVEDLMAVRGISRTLAETVYDHLHPGS” are within 0.2 log units of each other in “soluble fraction (log2)” value: 0.108 for the first, 0.22 for the second.

Compared with “HMARTIINLPLRNSVDESYNTTVNILQANGFKEVSYNGETVWKKGTGLLTAMQYIKIEFTDTTLVVSGWVQ”, “HMARTLSVTVSENYANMRLDSFLFESGLYPSRSKAVKQIESGKVFVNGNEPTKKTIVVANDFIVYEEYAEE” is lower in “soluble fraction (log2)” value: -0.11 for the first, -1.15 for the second.

First: HMARTTIATPWDKINDLLQGGLGNGDFGLIFGNPGGGKSWSLVALGGFAVKLGYNVIHYTLE
Second: HMASAEDDLTRRARKLLTTSSMLKTLQPDTGERLQWLPQVVRLLAEGVEAPRIVVLIRRAMESG
The “soluble fraction (log2)” value of the first is lower: -1.35 for the first, -0.00608 for the second.

“HMASALDFGRYVRSQYSLQEFPLILIAPLNDPHPKEVVRELFNLYLTKPITRSRLFDSLMTVLG” and “HMASDQGAGALREVSAFFEKHGRVPDPDAVDHDEMRLGSIWASIKSAPTDQMRLEDRFGLLD” are within 0.2 log units of each other in “soluble fraction (log2)” value: -0.499 for the first, -0.613 for the second.

“HMASDYYTTTANLNLRSGAGTTYGSLIIIEKGDTVKLLENVNDHWVKIQYDDKIGYVAMSYLLPIE” and “HMASEKSEQLYQQMKLDIAGMPPDTRLPSIRALMRSYSVSQLLIDRTLGRLREEGALRKRFDGLYTYL” are within 0.2 log units of each other in “soluble fraction (log2)” value: -0.113 for the first, -0.0945 for the second.

First: HMASELQQVQALLESQRYNEALILIETTIGKGASESTELLFARADVFASSGRHDEAEQAYREL
Second: HMASELVSADEKYSGLVSYLLGRVVVVDQIDHAIALAKKYRYSLRIVTLDGELLSPGGSMTGGAFKNS
The “soluble fraction (log2)” value of the first is lower: -0.45 for the first, 0.2 for the second.

First: HMASEVEVPNVYGMPSSLAERELSAVGLLADYRSRTGTGQQPGTVVHVKPDAGTVVSRGSTVVLFIA
Second: HMASFASRAEEVMTKLLANGQPRIKEVADAMHLSSRTLQRRLEREGVSFAELLDRLRKRLAHDMLAHS
The “soluble fraction (log2)” value of the first is lower: 0.138 for the first, no less than 0.43 for the second.

“HMASFGDLSGLKRTYPPQGLPDASRIADFLIARNEGDLSVEQVKALERFLFEHPDHERTARLVAATRVPA” and “HMASFTDAQALEVKDLYPDWSKIPEGTHLEAGQRVRYNGNLYKVRTGQAHDKQSTWTPTDAASLFEAID” are within 0.2 log units of each other in “soluble fraction (log2)” value: -0.115 for the first, 0.0558 for the second.

Compared with “HMASIEPLKTSIRIIWYINGEKDSETLLNTPPTAANKANAQKIADMVEQQIQMGIFNRDAVFPSSPKRQ”, “HMASIGVGTIVRVANAVNYNGVKVKAWFNDEGYEVTELSGDRAVLKHNGDLFDAFHVSDLEA” is lower in “soluble fraction (log2)” value: -0.559 for the first, -0.771 for the second.

“HMASINRIENKNGKVVYRIIVSLGYDKQGKKLKKTITYNVNQTATKKQQENEALKYALDIEDKIKNGHD” and “HMASITLDQAKEIALTHAGQTADAVWFEKAEQDYDDGILVYELEFAAKGTEYEYEIDAQTGAIREYKWDD” are within 0.2 log units of each other in “soluble fraction (log2)” value: -0.138 for the first, 0.0206 for the second.

Going from “HMASLSEREHDVAVLILQGKTYAEIGQAIFISPRTVEHHVASIRRRLEAKSRSDLIAKLRLTIGGTED” to “HMASPTKQLVLEALRASGQPMSSMELSAQIGVSRATAQRYLSTLASAGEVKIQLRYGTTGRPEQEFLAIE”, the “soluble fraction (log2)” value rises from -1.15 to 0.22.

Compared with “HMASQFSLIVTQADAGMRLDSLLAVSGAYPSRSAAVKQIEAGKVLVNGLARSKRSIVAPGDTIVYEEIP”, “HMASQVERGAVVVTDQRIFFIGVSSEGIEVHGTKIFGMSEKAPLYSHMKGLKKGDSFQFNGLKYVIQDIY” is lower in “soluble fraction (log2)” value: -0.0502 for the first, -0.916 for the second.

Compared with “HMASRKTERINRLIDVLQHATSRVPASVLSKILGIGERSVRNYVSEVNEQGQFRIDSSSGGYRLVA”, “HMASRTLSYSEFMSRVDSGDVTSVTLDGERIIMRTSNNQEFLSIKPEGEDISERLLAKNIEVRAEAQQ” is lower in “soluble fraction (log2)” value: -0.0154 for the first, -1.58 for the second.

First: HMASVGTHIKRLRAAKRMTQEELAEQLHVTRQAVSAWETGKALPDVEMLERIAAALDADVTEVIYGA
Second: HMATAATGIINNNYVNVRSGPATTYNIVGRLDQGSSIEILGSKNDWYQIKTKQLNGWVKNDFINLQK
The “soluble fraction (log2)” value of the first is lower: -0.24 for the first, 0.14 for the second.

“HMATETELNLQLMRIIDELHTDHNTWGSRKITDYLRLQGYEINRKRIQRLMDVMDIQVVYPK” and “HMATEVEVPDVVGRQMALATQLLEARKLRVNVAEIYDEKTPPGQVVSQSPEAGSSVKEERVVTIYVSR” are within 0.2 log units of each other in “soluble fraction (log2)” value: -0.00483 for the first, 0.158 for the second.

First: HMATGGKIYIGMNDNGKVVGVSDADKLLEDIPNKVRDVLGIIVDVNLLEENGLKYIEIDVPPYSN
Second: HMATGIKAVDNVFGWMNLEQVAKTVGLDIPSVLRASGLPEDTPVDISIKKIPGVDDEELKDSLRQYIEKS
The “soluble fraction (log2)” value of the first is lower: -0.477 for the first, -0.237 for the second.

Going from “HMATGTVKWFNPNKGFGFIQQDDASKDVFVHSNELNGVYINEGDKVEFDVVETEKGLSAQNIKK” to “HMATHGRRAVIELREKIVSGELPGGTRLFEVSLAETLDISRTPVREALSRLAEEGLLDRLPNGGFVVRR”, the “soluble fraction (log2)” value falls from 0.0939 to -1.39.

“HMATIGVGSKVTLTTYVDWVGNGLLKTRDFYFVSELNGKRAVLRADSMNGAIYAAVNIDNLRI” and “HMATINGIEKYLSSGLIPGIGPHTAKKLVEKFGLDTLDIMQYNPDRLTEVEGIGDKKAAKISEAFQEQK” are within 0.2 log units of each other in “soluble fraction (log2)” value: -0.103 for the first, -0.191 for the second.
